# Publication PMC7049730 (Nucleic Acids Research, 2019)
# Tests used:
# [1] = target: T1, Pf MR^NBD complex (Mre11-Rad50^NBD) (Pyrococcus furiosus, UniProt P58301, DEL196-708); experiment: Mre11 exonuclease assay, 2-aminopurine fluorescence (Exo2 dsDNA); type: biochemical; conditions: 1 mM AMP-PNP, 1 mM MnCl2, 5 mM MgCl2, 60 C, pH 7.5; binds Rad50 and stabilizes the closed state that occludes the Mre11 active site
# T1 construct: ~180 kDa complex; with DNA double-strand break repair protein Mre11
# [2] = target: P. furiosus Rad50 nucleotide binding domain L51C/L828F, LRET-labelled (UniProt P58301); experiment: LRET time course; conditions: Rad50 NBD in MRNBD complex with Mre11; after addition of saturating ATP; parent: est. 1.0; read off a plot
# [3] = target: Mre11^HLH-Rad50^NBD, wild type (Pyrococcus furiosus) (UniProt P58301); experiment: SEC; Superdex 200 Increase 10/300 GL, 4 °C, with 5 mM ATP; fraction dimer = area of the dimer peak over the areas of monomer and dimer peaks; monomer to dimer
# [4] = target: P. furiosus Rad50 nucleotide binding domain L51C/D829N, LRET-labelled (UniProt P58301); experiment: LRET time course; conditions: Rad50 NBD in MRNBD complex with Mre11; after addition of saturating ATP; parent: est. 1.0; read off a plot
# [5] = target: P. furiosus Rad50 nucleotide binding domain L51C/L828A, LRET-labelled (UniProt P58301); experiment: LRET time course; conditions: Rad50 NBD in MRNBD complex with Mre11; after addition of saturating ATP; parent: est. 1.0; read off a plot
# [6] = target: the molecule itself; experiment: FRET or BRET; LRET between Tb3+ chelate (donor) and Bodipy FL (acceptor) on L51C of the two Rad50^NBD in MR^NBD complexes with Mre11; donor-sensitized acceptor lifetimes, three-exponential fit; no ATP (apo); 0.5 uM wild type, L828A, D829A or 2.0 uM L828F, D829N complexes; 50 mM Tris, 200 mM NaCl, 5 mM MgCl2, pH 7.5, 50 °C; percent of LRET-visible molecules only
# [7] = target: the molecule itself; experiment: FRET or BRET; LRET time course: increase of donor-sensitized Bodipy FL emission after addition of 2 mM ATP to MR complexes; kex = k_assoc + k_dissoc of open to closed; 50 mM Tris, 200 mM NaCl, 5 mM MgCl2, pH 7.5, 50 °C
# [8] = target: the molecule itself; experiment: FRET or BRET; as a1 but with 2 mM ATP (ATP-bound); MR^NBD complexes with Mre11; 50 mM Tris, 200 mM NaCl, 5 mM MgCl2, pH 7.5, 50 °C; percent of LRET-visible molecules only
molecule,measurement,setting,value
Nc1ncnc2c1ncn2[C@@H]1O[C@H](COP(=O)(O)OP(=O)(O)NP(=O)(O)O)[C@@H](O)[C@H]1O [AMP-PNP],"Mre11 exonuclease assay, 2-aminopurine fluorescence (Exo2 dsDNA)",[1],"AMP-PNP, which stabilizes the complex into the closed state and occludes the Mre11 active"
"P. furiosus Rad50 nucleotide binding domain L51C, LRET-labelled (from UniProt P58301) L828F",ratio to parent,[2],4.2
"Mre11^HLH-Rad50^NBD, wild type (from UniProt P58301 1-195; P58301 709-882) (complex)",percent converted to a stable dimer upon addition of ATP,[3],30%
same,stoichiometry N,[3],2
"P. furiosus Rad50 nucleotide binding domain L51C, LRET-labelled (from UniProt P58301) D829N",ratio to parent,[4],8.7
"P. furiosus Rad50 nucleotide binding domain L51C, LRET-labelled (from UniProt P58301) L828A",ratio to parent,[5],4.4
"P. furiosus Rad50 nucleotide binding domain L51C/L828F, LRET-labelled (domain or fragment, Pyrococcus furiosus, Tb3+ chelate DTPA-cs124-EMPH (donor) or Bodipy FL maleimide (acceptor) on the cysteine L51C, Rad50, Pyrococcus furiosus, amino acids 1-195; linker that replaces most of the coiled-coil and the Zn-hook; Rad50, Pyrococcus furiosus, amino acids 709-882; Measured within the MR^NBD complex with Mre11; also called L828F MR^NBD (LRET); source: labelled and passed over Superdex 200 Increase) MKLERVTVKNFRSHSDTVVEFKEGINLIIGQNGSGKSSLLDAILVGLYWPCRIKDIKKDEFTKVGARDTYIDLIFEKDGTKYRITRRFLKGYSSGEIHAMKRLVGNEWKHVTEPSSKAISAFMEKLIPYNIFLNAIYIRQGQIDAILESDEAREKVVREVLNLDKFETAYKKLSELKKTINNRIKEYRDILARTEGGAGGAGGRERVKKEIKDLEKAKDFTEELIEKVKKYKALAREAALSKIGELASEIFAEFTEGKYSEVVVRAEENKVRLFVVWEGKERPLTFLSGGERIALGLAFRLAMSLYLAGEISLLILDEPTPYFDEERRRKLITIMERYLKKIPQVILVSHDEELKDAADHVIRISLENGSSKVEVVS",percent of molecules in the closed state,[6],30%
same,fold faster approach to equilibrium (kex) than wild type,[7],~4 fold
same,percent of molecules in the closed state,[8],30%
"P. furiosus Rad50 nucleotide binding domain L51C/D829N, LRET-labelled (domain or fragment, Pyrococcus furiosus, Tb3+ chelate DTPA-cs124-EMPH (donor) or Bodipy FL maleimide (acceptor) on the cysteine L51C, Rad50, Pyrococcus furiosus, amino acids 1-195; linker that replaces most of the coiled-coil and the Zn-hook; Rad50, Pyrococcus furiosus, amino acids 709-882; Measured within the MR^NBD complex with Mre11; also called D829N MR^NBD (LRET); source: labelled and passed over Superdex 200 Increase) MKLERVTVKNFRSHSDTVVEFKEGINLIIGQNGSGKSSLLDAILVGLYWPCRIKDIKKDEFTKVGARDTYIDLIFEKDGTKYRITRRFLKGYSSGEIHAMKRLVGNEWKHVTEPSSKAISAFMEKLIPYNIFLNAIYIRQGQIDAILESDEAREKVVREVLNLDKFETAYKKLSELKKTINNRIKEYRDILARTEGGAGGAGGRERVKKEIKDLEKAKDFTEELIEKVKKYKALAREAALSKIGELASEIFAEFTEGKYSEVVVRAEENKVRLFVVWEGKERPLTFLSGGERIALGLAFRLAMSLYLAGEISLLILDEPTPYLNEERRRKLITIMERYLKKIPQVILVSHDEELKDAADHVIRISLENGSSKVEVVS",percent of molecules in the closed state,[6],33%
same,fold faster approach to equilibrium (kex) than wild type,[7],~8 fold
same,percent of molecules in the closed state,[8],33%
"P. furiosus Rad50 nucleotide binding domain L51C/L828A, LRET-labelled (domain or fragment, Pyrococcus furiosus, Tb3+ chelate DTPA-cs124-EMPH (donor) or Bodipy FL maleimide (acceptor) on the cysteine L51C, Rad50, Pyrococcus furiosus, amino acids 1-195; linker that replaces most of the coiled-coil and the Zn-hook; Rad50, Pyrococcus furiosus, amino acids 709-882; Measured within the MR^NBD complex with Mre11; also called L828A MR^NBD (LRET); source: labelled and passed over Superdex 200 Increase) MKLERVTVKNFRSHSDTVVEFKEGINLIIGQNGSGKSSLLDAILVGLYWPCRIKDIKKDEFTKVGARDTYIDLIFEKDGTKYRITRRFLKGYSSGEIHAMKRLVGNEWKHVTEPSSKAISAFMEKLIPYNIFLNAIYIRQGQIDAILESDEAREKVVREVLNLDKFETAYKKLSELKKTINNRIKEYRDILARTEGGAGGAGGRERVKKEIKDLEKAKDFTEELIEKVKKYKALAREAALSKIGELASEIFAEFTEGKYSEVVVRAEENKVRLFVVWEGKERPLTFLSGGERIALGLAFRLAMSLYLAGEISLLILDEPTPYADEERRRKLITIMERYLKKIPQVILVSHDEELKDAADHVIRISLENGSSKVEVVS",percent of molecules in the closed state,[6],46%
same,fold faster approach to equilibrium (kex) than wild type,[7],~4 fold
same,percent of molecules in the closed state,[8],54%
"P. furiosus Rad50 nucleotide binding domain L51C/D829A, LRET-labelled (domain or fragment, Pyrococcus furiosus, Tb3+ chelate DTPA-cs124-EMPH (donor) or Bodipy FL maleimide (acceptor) on the cysteine L51C, Rad50, Pyrococcus furiosus, amino acids 1-195; linker that replaces most of the coiled-coil and the Zn-hook; Rad50, Pyrococcus furiosus, amino acids 709-882; Measured within the MR^NBD complex with Mre11; also called D829A MR^NBD (LRET); source: labelled and passed over Superdex 200 Increase) MKLERVTVKNFRSHSDTVVEFKEGINLIIGQNGSGKSSLLDAILVGLYWPCRIKDIKKDEFTKVGARDTYIDLIFEKDGTKYRITRRFLKGYSSGEIHAMKRLVGNEWKHVTEPSSKAISAFMEKLIPYNIFLNAIYIRQGQIDAILESDEAREKVVREVLNLDKFETAYKKLSELKKTINNRIKEYRDILARTEGGAGGAGGRERVKKEIKDLEKAKDFTEELIEKVKKYKALAREAALSKIGELASEIFAEFTEGKYSEVVVRAEENKVRLFVVWEGKERPLTFLSGGERIALGLAFRLAMSLYLAGEISLLILDEPTPYLAEERRRKLITIMERYLKKIPQVILVSHDEELKDAADHVIRISLENGSSKVEVVS",percent of molecules in the closed state,[6],42%
same,percent of molecules in the closed state,[8],60%
